In patent publication US20210079089A1 (SURROZEN OPERATING, published 2021):

B1: 009S-F03 (VHH)
VHH: DVQLVESGGGLVQAGGSLRLSCAASGRTFSSYAMSWFRQAPGKEREFVAVIGRSGGIKYYADSVKGRFTISRDNTINTVYLQMNNLTPEDTAIYYCATRRPFNSYNTEQSYDSWGRGTLVTVSS
B2: 009S-G02 (VHH)
VHH: AVQLVESGGGLVQAGGSLRLSCGVSGSIFSIYAMGWYRQAPGKERELVAVITSGGKTVYADSVKGRFTITEDAAKNTVYLQMNSLKAEDTAVYYCYADSRSSWYDEYLEHWGRGTLVTVSS
B3: 009S-D03 (VHH)
VHH: DVQLVESGGGLVQPGGSLRLSCAAPGSIFSDGAMGWYRQAPGKQRELVAVISGGRTGYADFVKGRFTISRDNGKNTVNLQMNRLEPEDTAVYFCNTYPFPIYKKGYPFWGQGTQVTVSS
B4: 009S-A04 (VHH)
VHH: AVQLVESGGGLVQAGGSLRLSCAASGRTLSAYDMGWFRQAPGKERELVGGIRWSGGTTLYPDSVKGRFTISRDNAKNTVYLQMNSLKPEDSAVYYCYARTVIGGFGAFRAHWGQGTQVTVSS
B5: 013S-C05 (HC SEQ ID NO 17) (VHH)
VHH: EVQLVESGGGLVQPGGSLRLSCAVSRNIFPIDDMSWYRQAPGKQRELVATVTSGGRINYADSVKGRFTISRDGARRTIDLQMNNLKPEDTAVYYCNVDRTLYGKYKEYWGQGTLVTVSS
B6: 013S-D05 (HC SEQ ID NO 18) (VHH)
VHH: QVKLEESGGGLVQAGGSLRLSCAASGRIFSIYDMGWFRQAPGKEREFVSGIRWSGGTSYADSVKGRFTISKDNAKNTIYLQMNNLKAEDTAVYYCGSRGYWGQGTLVTVSS

What was measured:
LRP6E3E4_O75581_631-1246 [1] = target: T1, LRP6E3E4_O75581_631-1246 (Homo sapiens (Human), UniProt O75581 631-1246, biotinylated in the BLI/SPR assays (C-terminal biotin acceptor peptide)); experiment: Octet BLI
T1 construct: The entry holds residues 631-1246 of UniProt O75581 followed by a biotin acceptor peptide and eight His
T1 sequence: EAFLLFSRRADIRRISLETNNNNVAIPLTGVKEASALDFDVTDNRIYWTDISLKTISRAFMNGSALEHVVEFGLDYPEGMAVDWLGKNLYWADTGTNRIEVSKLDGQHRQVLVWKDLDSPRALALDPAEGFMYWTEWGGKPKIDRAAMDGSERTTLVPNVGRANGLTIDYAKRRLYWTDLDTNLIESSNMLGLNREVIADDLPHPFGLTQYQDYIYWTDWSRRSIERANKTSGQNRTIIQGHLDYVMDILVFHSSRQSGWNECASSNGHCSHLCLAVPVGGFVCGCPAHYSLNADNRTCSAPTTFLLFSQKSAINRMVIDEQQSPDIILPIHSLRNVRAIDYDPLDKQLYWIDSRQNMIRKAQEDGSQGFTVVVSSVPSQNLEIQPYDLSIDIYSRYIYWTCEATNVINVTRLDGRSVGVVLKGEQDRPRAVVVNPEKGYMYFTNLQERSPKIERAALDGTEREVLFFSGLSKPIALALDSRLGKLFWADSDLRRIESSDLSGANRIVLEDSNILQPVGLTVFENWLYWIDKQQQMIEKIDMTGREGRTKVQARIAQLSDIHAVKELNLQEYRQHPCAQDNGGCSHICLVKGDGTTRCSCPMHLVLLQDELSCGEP
Experimental: (§1) Binding kinetics of antibody fragments to LRP5 extracellular domain (LRP5 ECD) and/or LRP6 extracellular domain (LRP6 ECD) protein targets was determined by bio-layer interferometry (BLI) using Octet Red 96 (PALL ForteBio, Fremont, Calif.) instruments at 30° C., 1000 rpm with streptavidin (SA) biosensors. C-terminal biotinylated LRP ECD recombinant protein was diluted to 20 nM in the running buffer (PBS, 0.05% Tween-20, 0.5% BSA, pH 7.2) and captured to the SA biosensor until coupling length reached 0.2 nm. Following capture of the LRP5 or LRP6, the SA biosensor with captured biotinylated-LRP5 or biotinylated LRP6 was dipped into wells containing the relevant antibody fragment at […] (0, 1.37, 4.12, 12.4, 37, 111.1, 333.3, 1000 nM) in running buffer, plus a well with only running buffer as a reference channel. KD was determined by global fitting, 1:1 binding model according to manufacturer recommended settings.

LRP6e1e2 [2] = target: T2, LRP6e1e2 (UniProt O75581 20-630, limits assumed, C-terminally biotinylated); experiment: Octet BLI or BIAcore SPR
T2 construct: domain: E1E2; also called LRP6 E1E2 domains
T2 sequence (looked up): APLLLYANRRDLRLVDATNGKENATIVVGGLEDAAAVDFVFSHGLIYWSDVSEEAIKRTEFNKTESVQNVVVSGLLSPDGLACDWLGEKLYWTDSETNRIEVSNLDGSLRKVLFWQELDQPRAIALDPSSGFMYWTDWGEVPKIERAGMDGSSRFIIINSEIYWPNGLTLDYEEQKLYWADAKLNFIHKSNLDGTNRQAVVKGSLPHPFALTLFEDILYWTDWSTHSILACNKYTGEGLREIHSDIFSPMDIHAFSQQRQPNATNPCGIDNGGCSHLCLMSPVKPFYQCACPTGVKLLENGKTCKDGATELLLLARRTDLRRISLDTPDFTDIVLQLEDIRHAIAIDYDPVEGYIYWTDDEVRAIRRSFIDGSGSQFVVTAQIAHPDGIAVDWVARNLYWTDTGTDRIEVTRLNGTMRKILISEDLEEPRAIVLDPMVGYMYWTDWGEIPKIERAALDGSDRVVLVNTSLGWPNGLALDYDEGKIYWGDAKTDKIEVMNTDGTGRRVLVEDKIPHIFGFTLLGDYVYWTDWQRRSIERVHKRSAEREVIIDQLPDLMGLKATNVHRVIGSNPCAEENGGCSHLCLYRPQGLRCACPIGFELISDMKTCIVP

LRP6e1e2 [3] = target: T2, LRP6e1e2; experiment: Octet BLI, affinity class
Experimental: as §1

LRP6e1e2 [4] = target: T2, LRP6e1e2; experiment: Octet BLI
Experimental: as §1

LRP6E3E4_O75581_631-1246 [5] = target: T1, LRP6E3E4_O75581_631-1246; experiment: Octet BLI or BIAcore SPR
LRP6E3E4_O75581_631-1246 [6] = target: T1, LRP6E3E4_O75581_631-1246; experiment: Octet BLI, affinity class
Experimental: as §1

| Binder | binding result (LRP6E3E4_O75581_631-1246 [1]) | Kd (LRP6e1e2 [2]) [nM] | Kd (LRP6e1e2 [3]) [nM] | binding result (LRP6e1e2 [4]) | Kd (LRP6E3E4_O75581_631-1246 [5]) [nM] | Kd (LRP6E3E4_O75581_631-1246 [6]) [nM] |
| --- | --- | --- | --- | --- | --- | --- |
| B1 | no binding | < 500 | < 500 | – | – | – |
| B2 | no binding | < 500 | < 500 | – | – | – |
| B3 | no binding | < 500 | < 500 | – | – | – |
| B4 | no binding | < 500 | < 500 | – | – | – |
| B5 | – | – | – | no binding | < 500 | < 500 |
| B6 | – | – | – | no binding | < 500 | < 500 |
